The results in this text go back to US7728193B2, “Phytochrome-interacting protein and a use thereof” (Genomine Inc., priority 2004, dated 2010).

One test deals with T1, phytochrome B (Arabidopsis thaliana, UniProt P14713).
T1 sequence (P14713 1-1172): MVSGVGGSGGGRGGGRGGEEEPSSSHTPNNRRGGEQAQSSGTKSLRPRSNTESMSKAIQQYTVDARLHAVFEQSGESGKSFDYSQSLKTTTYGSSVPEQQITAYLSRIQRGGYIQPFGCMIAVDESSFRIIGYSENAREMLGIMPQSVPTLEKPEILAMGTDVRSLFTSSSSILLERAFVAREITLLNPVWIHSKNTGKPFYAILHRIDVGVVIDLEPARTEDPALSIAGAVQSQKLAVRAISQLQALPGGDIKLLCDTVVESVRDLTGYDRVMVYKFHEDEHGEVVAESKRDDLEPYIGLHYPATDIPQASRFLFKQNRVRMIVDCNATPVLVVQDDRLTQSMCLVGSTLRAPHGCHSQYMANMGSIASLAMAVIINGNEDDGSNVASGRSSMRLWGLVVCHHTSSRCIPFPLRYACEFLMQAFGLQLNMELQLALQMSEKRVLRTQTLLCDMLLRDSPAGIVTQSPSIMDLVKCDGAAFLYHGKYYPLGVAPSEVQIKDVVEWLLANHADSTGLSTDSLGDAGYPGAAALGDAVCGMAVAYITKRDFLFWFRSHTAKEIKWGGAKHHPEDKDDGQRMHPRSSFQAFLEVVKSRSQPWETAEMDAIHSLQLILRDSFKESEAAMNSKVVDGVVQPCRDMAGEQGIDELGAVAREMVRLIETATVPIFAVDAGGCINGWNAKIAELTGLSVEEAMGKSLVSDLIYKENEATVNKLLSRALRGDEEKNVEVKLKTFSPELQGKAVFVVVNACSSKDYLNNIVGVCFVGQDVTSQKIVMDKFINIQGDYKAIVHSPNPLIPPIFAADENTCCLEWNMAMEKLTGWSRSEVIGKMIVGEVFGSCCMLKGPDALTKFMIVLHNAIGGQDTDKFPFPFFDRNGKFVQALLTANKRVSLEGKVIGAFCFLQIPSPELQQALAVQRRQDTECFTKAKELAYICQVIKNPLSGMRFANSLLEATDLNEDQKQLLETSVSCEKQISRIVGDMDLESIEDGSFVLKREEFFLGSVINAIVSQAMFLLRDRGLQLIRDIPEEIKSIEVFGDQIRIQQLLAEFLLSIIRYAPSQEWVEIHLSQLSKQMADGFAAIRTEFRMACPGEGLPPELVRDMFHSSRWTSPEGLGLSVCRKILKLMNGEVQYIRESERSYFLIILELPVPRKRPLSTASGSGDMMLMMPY
T1 sequence (Q84XU2 1-484 isoform Q84XU2-2 partner): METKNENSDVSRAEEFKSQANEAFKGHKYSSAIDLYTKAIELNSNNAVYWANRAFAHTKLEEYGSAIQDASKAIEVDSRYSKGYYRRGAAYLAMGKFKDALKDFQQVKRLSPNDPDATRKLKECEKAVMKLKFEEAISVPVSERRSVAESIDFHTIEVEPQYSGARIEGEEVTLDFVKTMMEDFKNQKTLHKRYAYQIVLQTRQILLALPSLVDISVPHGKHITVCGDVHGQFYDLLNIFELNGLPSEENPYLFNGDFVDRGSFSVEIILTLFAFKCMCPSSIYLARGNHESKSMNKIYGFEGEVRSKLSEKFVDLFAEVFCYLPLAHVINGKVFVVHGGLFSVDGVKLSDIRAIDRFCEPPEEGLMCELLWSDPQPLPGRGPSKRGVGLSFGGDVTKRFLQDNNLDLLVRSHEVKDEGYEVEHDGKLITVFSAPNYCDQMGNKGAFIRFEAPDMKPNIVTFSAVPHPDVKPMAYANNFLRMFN
Put plainly: In vitro binding assay (GST pull-down of 35S-labeled TnT protein). As to conditions: 1 μg GST-PAPP5 fusion protein, 4° C.

For test [1], the system named is autophosphorylated oat phytochrome A. Put plainly: Dephosphorylation of autophosphorylated phytochrome by PAPP5 in vitro. Type of test: biochemical. Conditions: Rc 664 nm or FRc 748 nm irradiation for 5 minutes. Here is the method:
First, KP buffer (20 mM Tris-HCl pH7.5, 30 mM MgCl2, 1 mM EDTA, 1 mM EGTA, 0.1% β-mercaptoethanol, 0.1% ethanol) containing 1 μg of purified oat phytochrome A (provided from Kumho Life and Environmental Science Laboratory, Korea) was set on ice and irradiated with Rc light output of 50 μmolS^−1m^−2 at 664 nm for 5 minutes. Then, the reaction solution was allowed to react with [γ-^32P]ATP in dark conditions for 30 minutes (autophosphorylation of phytochrome A). Following addition of 1 μg of each of the fusion proteins GST-PAPP5, GST-TPR and GST-PP2Ac prepared in Examples <4-1> and <5-1>, the reaction continued for more 30 minutes, and then stopped by adding 12 μl of 5× Tris-glycine SDS sample buffer under dim green safe light.
Next, the present inventors investigated whether the phosphatase activity of PAPP5 depends on a change in the spectroscopic structure (photoconversion) of phytochrome molecules (Pr⇄Pfr). KP buffer solution containing phytochrome was set on ice and irradiated with a Rc light output of 50 μmolS^−1m^−2 at 664 nm (conversion of phytochrome into Pfr form) or a FRc light output of 50 μmolS^−1m^−2 at 748 nm (conversion of phytochrome into […]) for 5 minutes. Then, the autophosphylation/dephosphorylation test of phytochrome was performed in the same manner as described above.

Regarding “PAPP5: type 5 serine/threonine protein phosphatase of Arabidopsis thaliana interacting with phytochromes, SEQ ID NO: 4”, in the test with phytochrome B, the “binding to phytochrome B” value is on record as “has the property of binding”. For the same substance, the “dephosphorylation by PAPP5 according to the form of phytochrome (Pfr vs Pr)” value in test [1] is listed as “higher in Pfr phytochrome”.
